{"source": "paper PMC6078440", "about": "“Structural and functional analysis of Dickkopf 4 (Dkk4): New insights into Dkk evolution and regulation of Wnt signaling by Dkk and Kremen proteins” (The Journal of Biological Chemistry, 2018)", "binders": {"B1": {"name": "full-length mature Dkk4 (Dickkopf 4), residues 19-224, His-tagged (natural protein, human, UniProt Q9UBT3 19-224, looked up)", "chain": "LVLDFNNIRSSADLHGARKGSQCLSDTDCNTRKFCLQPRDEKPFCATCRGLRRRCQRDAMCCPGTLCVNDVCTTMEDATPILERQLDEQDGTHAEGTTGHPVQENQPKRKPSIKKSQGRKGQEGESCLRTFDCGPGLCCARHFWTKICKPVLLEGQVCSRRGHKDTAQAPEIFQRCDCGPGLLCRSQLTSNRQHARLRVCQKIEKL", "modifications": "uniformly 15N/13C/2H-labelled in the NMR experiments", "notes": "residues numbered from the N-terminal methionine; also called Dkk4FL"}}, "key": {"[1]": {"target": "the molecule itself", "test": "SEC; Superdex 75 10/300 GL, 3 μM Krm1 ECD in 50 mM Na2HPO4, 100 mM NaCl, pH 7.5; apparent masses from a calibration with globular standards; monomer and dimer"}, "[2]": {"target": "T1, LRP6 E1E2-Fc (β-propeller domains 1 and 2 of low-density lipoprotein receptor-related protein 6, Fc fusion) (human)", "T1 chain": "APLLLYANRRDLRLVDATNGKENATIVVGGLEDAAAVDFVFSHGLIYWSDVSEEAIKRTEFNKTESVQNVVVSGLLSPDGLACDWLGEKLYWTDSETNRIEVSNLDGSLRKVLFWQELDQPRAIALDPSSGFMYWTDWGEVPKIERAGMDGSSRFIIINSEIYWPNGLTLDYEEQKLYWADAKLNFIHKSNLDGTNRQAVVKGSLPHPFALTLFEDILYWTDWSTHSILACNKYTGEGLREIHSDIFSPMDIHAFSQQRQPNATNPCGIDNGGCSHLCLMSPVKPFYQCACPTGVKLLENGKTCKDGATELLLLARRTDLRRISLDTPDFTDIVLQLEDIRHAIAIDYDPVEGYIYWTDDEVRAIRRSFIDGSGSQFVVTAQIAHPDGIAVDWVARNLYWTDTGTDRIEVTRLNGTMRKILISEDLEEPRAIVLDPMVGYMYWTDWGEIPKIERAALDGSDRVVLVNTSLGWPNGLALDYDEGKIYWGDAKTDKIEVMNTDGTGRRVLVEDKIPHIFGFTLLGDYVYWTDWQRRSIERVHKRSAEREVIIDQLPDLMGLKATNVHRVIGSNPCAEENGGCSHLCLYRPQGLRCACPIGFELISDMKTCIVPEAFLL", "test": "BLI; pH 6.5"}, "[3]": {"target": "B1", "test": "BLI; LRP6 E1E2-Fc (200 nM) loaded on AHC biosensors; Dkk4FL 1-1000 nM; 25 mM Na2HPO4, 100 mM NaCl, 0.05% Triton X-100, pH 6.5; steady-state fit to a one-site model", "conditions": "both partners purified"}, "[4]": {"target": "T2, N-terminal region of Dkk4 including CRD1, residues 19-97 (human, UniProt Q9UBT3 19-97)", "T2 construct": "Dickkopf 4 (Dkk4), human, N-terminal region with the NXI(R/K) motif and CRD1, residues 19-97; residues numbered from the N-terminal methionine; construct details are in the supporting material; also called Dkk4N; isolated Dkk4N region; not shown: His6 (with linker), C-terminal, kept", "T2 sequence (looked up)": "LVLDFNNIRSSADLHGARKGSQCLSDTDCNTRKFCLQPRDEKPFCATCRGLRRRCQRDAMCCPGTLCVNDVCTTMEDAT", "test": "BLI; LRP6 E1E2-Fc (200 nM) loaded on AHC biosensors; Dkk4N 0.1-100 μM; 25 mM Na2HPO4, 100 mM NaCl, 0.05% Triton X-100, pH 6.5 or 7.5 (not told which for the printed KD); later experiments with 0.1% BSA; steady-state fit to a one-site model", "conditions": "both partners purified"}, "[5]": {"target": "T3, Kremen1 extracellular domain Fc fusion protein (human, UniProt Q96MU8 21-392)", "T3 construct": "Kremen1 (Krm1), human, extracellular domain (kringle, WSC and CUB domains); also called Krm1 ECD-Fc; Krm1 ECD; source: expressed, in cell culture medium (supernatants); host in the supporting material", "T3 sequence (looked up)": "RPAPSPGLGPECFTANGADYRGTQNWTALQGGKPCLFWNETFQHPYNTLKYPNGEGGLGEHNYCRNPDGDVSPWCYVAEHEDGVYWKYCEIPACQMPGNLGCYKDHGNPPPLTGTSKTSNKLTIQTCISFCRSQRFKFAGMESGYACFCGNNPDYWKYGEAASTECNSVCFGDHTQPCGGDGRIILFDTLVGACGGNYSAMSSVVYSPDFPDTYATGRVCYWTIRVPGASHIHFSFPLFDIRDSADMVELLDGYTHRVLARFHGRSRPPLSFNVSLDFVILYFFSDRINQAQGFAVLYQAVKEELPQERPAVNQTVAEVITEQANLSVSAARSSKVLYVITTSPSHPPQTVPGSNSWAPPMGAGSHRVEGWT", "test": "BLI; Krm1 ECD-Fc loaded from supernatants on AHC biosensors; Dkk2FL or Dkk4FL 1-1000 nM, Dkk4N 0.1-100 μM; 25 mM Na2HPO4, 100 mM NaCl, 0.05% Triton X-100, pH 6.5; steady-state fit to a one-site model", "conditions": "one partner purified"}, "[6]": {"target": "T4, Kremen1 extracellular domain Fc fusion protein (human, UniProt Q96MU8 21-392)", "T4 chain": "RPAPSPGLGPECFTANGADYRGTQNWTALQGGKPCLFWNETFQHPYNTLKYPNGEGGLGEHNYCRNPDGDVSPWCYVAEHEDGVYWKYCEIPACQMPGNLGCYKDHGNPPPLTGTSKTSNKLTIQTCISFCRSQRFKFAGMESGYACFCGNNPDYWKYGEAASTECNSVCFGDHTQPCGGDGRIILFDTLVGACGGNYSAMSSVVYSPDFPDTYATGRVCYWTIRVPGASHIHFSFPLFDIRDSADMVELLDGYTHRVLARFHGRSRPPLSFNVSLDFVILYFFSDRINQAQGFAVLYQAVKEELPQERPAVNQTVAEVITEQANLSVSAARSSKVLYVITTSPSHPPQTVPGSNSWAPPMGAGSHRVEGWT", "test": "BLI; pH 6.5"}, "[7]": {"target": "T1, LRP6 E1E2-Fc (β-propeller domains 1 and …)", "test": "BLI; pH 7.5"}}, "note": "Where “and” joins values, the source holds several entries; their conditions need not be identical. Equal entries are not always repeated.", "data": [{"binder": "isolated Kremen1 extracellular domain, Fc tag removed (domain or fragment, human, UniProt Q96MU8 21-392, looked up, Kremen1 (Krm1), human, extracellular domain (kringle, WSC and CUB domains); Eluted in SEC as monomer (35 kDa) and noncovalent dimer (70 kDa); also called Krm1 ECD; isolated Krm1 ECD; source: prepared from Krm1 ECD-Fc by removal of the Fc tag, size-exclusion chromatography; host in the supporting material) RPAPSPGLGPECFTANGADYRGTQNWTALQGGKPCLFWNETFQHPYNTLKYPNGEGGLGEHNYCRNPDGDVSPWCYVAEHEDGVYWKYCEIPACQMPGNLGCYKDHGNPPPLTGTSKTSNKLTIQTCISFCRSQRFKFAGMESGYACFCGNNPDYWKYGEAASTECNSVCFGDHTQPCGGDGRIILFDTLVGACGGNYSAMSSVVYSPDFPDTYATGRVCYWTIRVPGASHIHFSFPLFDIRDSADMVELLDGYTHRVLARFHGRSRPPLSFNVSLDFVILYFFSDRINQAQGFAVLYQAVKEELPQERPAVNQTVAEVITEQANLSVSAARSSKVLYVITTSPSHPPQTVPGSNSWAPPMGAGSHRVEGWT", "values": [{"measurement": "stoichiometry N", "setting": "[1]", "value": 2}]}, {"binder": "N-terminal region of Dkk4 including CRD1, residues 19-97 (domain or fragment) LVLDFNNIRSSADLHGARKGSQCLSDTDCNTRKFCLQPRDEKPFCATCRGLRRRCQRDAMCCPGTLCVNDVCTTMEDAT", "values": [{"measurement": "Kd", "setting": "[2]", "value": 11100, "unit": "nM"}]}, {"binder": "LRP6 E1E2-Fc (β-propeller domains 1 and 2 of low-density lipoprotein receptor-related protein 6, Fc fusion) (Fc fusion) APLLLYANRRDLRLVDATNGKENATIVVGGLEDAAAVDFVFSHGLIYWSDVSEEAIKRTEFNKTESVQNVVVSGLLSPDGLACDWLGEKLYWTDSETNRIEVSNLDGSLRKVLFWQELDQPRAIALDPSSGFMYWTDWGEVPKIERAGMDGSSRFIIINSEIYWPNGLTLDYEEQKLYWADAKLNFIHKSNLDGTNRQAVVKGSLPHPFALTLFEDILYWTDWSTHSILACNKYTGEGLREIHSDIFSPMDIHAFSQQRQPNATNPCGIDNGGCSHLCLMSPVKPFYQCACPTGVKLLENGKTCKDGATELLLLARRTDLRRISLDTPDFTDIVLQLEDIRHAIAIDYDPVEGYIYWTDDEVRAIRRSFIDGSGSQFVVTAQIAHPDGIAVDWVARNLYWTDTGTDRIEVTRLNGTMRKILISEDLEEPRAIVLDPMVGYMYWTDWGEIPKIERAALDGSDRVVLVNTSLGWPNGLALDYDEGKIYWGDAKTDKIEVMNTDGTGRRVLVEDKIPHIFGFTLLGDYVYWTDWQRRSIERVHKRSAEREVIIDQLPDLMGLKATNVHRVIGSNPCAEENGGCSHLCLYRPQGLRCACPIGFELISDMKTCIVPEAFLL", "values": [{"measurement": "Kd", "setting": "[3]", "value": "64 to 77", "unit": "nM"}, {"measurement": "Kd", "setting": "[4]", "value": "11000 to 30000", "unit": "nM"}]}, {"binder": "full-length mature Dkk2 (Dickkopf 2), residues 38-259, His-tagged (natural protein, human, UniProt Q9UBU2 38-259, looked up, also called Dkk2FL) IKSSLGGETPGQAANRSAGMYQGLAFGGSKKGKNLGQAYPCSSDKECEVGRYCHSPHQGSSACMVCRRKKKRCHRDGMCCPSTRCNNGICIPVTESILTPHIPALDGTRHRDRNHGHYSNHDLGWQNLGRPHTKMSHIKGHEGDPCLRSSDCIEGFCCARHFWTKICKPVLHQGEVCTKQRKKGSHGLEIFQRCDCAKGLSCKVWKDATYSSKARLHVCQKI", "values": [{"measurement": "Kd", "setting": "[5]", "value": "~12", "unit": "nM"}]}, {"binder": "B1", "values": [{"measurement": "Kd", "setting": "[5]", "value": "93 to 130", "unit": "nM"}, {"measurement": "Kd", "setting": "[6]", "value": 93.1, "unit": "nM"}, {"measurement": "Kd", "setting": "[7]", "value": "48.7 nM and 55.6 nM"}]}]}
